# Reference: patent US20020012949A1, “Assay systems for leptin-enhancing agents” (priority 1997, published 2002)
# Molecular target: T1, OB-RY1141F (Homo sapiens, UniProt P48357, Y1141F)
# T1 construct: cells transfected with the full-length OB-R constructs; expressed in transfected cells; host or cells: COS-7
# T1 sequence (P48357 22-1165 Y1141F): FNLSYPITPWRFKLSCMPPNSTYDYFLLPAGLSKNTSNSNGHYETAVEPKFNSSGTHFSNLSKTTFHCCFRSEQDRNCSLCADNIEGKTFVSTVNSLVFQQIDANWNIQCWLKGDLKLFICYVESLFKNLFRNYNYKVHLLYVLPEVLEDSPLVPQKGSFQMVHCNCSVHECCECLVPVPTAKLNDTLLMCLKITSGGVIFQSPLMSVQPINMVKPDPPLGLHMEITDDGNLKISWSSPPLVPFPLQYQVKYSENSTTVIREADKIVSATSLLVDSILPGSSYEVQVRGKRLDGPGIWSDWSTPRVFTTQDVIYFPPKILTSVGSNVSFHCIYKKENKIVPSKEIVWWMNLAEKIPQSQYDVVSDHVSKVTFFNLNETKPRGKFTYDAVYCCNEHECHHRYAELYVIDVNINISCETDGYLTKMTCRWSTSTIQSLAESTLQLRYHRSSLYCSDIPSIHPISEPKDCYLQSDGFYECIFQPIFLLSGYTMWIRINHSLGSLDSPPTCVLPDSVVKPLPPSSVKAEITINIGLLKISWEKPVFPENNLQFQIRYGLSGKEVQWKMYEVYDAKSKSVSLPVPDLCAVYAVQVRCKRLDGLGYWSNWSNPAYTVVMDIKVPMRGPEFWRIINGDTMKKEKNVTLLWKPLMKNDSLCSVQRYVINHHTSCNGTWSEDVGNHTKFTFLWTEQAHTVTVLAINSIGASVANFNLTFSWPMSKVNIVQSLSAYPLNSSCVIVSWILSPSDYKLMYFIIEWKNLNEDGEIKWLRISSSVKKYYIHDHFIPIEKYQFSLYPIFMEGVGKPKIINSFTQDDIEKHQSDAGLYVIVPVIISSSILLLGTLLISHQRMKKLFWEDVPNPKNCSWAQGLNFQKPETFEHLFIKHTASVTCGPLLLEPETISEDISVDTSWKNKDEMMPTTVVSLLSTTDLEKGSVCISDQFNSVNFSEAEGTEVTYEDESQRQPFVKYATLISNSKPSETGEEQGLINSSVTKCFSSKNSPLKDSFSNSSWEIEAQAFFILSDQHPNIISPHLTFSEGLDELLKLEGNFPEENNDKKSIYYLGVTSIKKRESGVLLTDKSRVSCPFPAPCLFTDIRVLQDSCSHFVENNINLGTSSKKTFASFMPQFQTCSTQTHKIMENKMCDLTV
# Assay: Luciferase reporter gene assay (3(G3)-Cy6-LUC), leptin stimulation of COS cells expressing mutant OB-RY1141F
# Format: cell-based
# Settings: mutant construct OB-RY1141F, 100 ng/ml leptin for 24 hours
# Method: The cytoplasmic domain and full-length human OB-R was cloned by PCR using human fetal liver and adipocyte cDNA (Clontech) and cloned into the expression vectors pCMX and pMT21. Chimeric receptors were constructed by fusing the extracellular domain and transmembrane domain of TrkC (amino acids 1 to 458) to the cytoplasmic domain of OB-R (amino acids 865-1165). A triple myc epitope tag was added at the C-terminus of all OB-R constructs (18). Truncation and point mutant constructs were generated by PCR and the sequences of all constructs were verified. Expression constructs were transfected into COS-7 cells using lipofectamine (GIBCO-BRL); 36-48 hours after transfection, cells were starved for either 2 hour,s for chimeric receptors or overnight for full-length receptors prior to stimulation.
# Expression constructs (1 μg) for OB-R, OB-RY1141F, OB-RY986F, OB-RY1078, 1079F, and OB-RY986, 1141F were co-transfected with 1 μg of 3(G3)-Cy6-LUC and 0.1 μg of pCMX.LacZ into COS-7 cells (6-well dishes) using lipofectamine. The day after transfection, media was changed to serum-free OptiMEM (GIBCO-BRL) and then treated with 100 ng/ml murine leptin (PeproTech) or human leptin (R&D Systems) for 24 hours. […] Luciferase and β-galactosidase activities were measured in cell lysates (30) and luciferase activity was normalized to β-galactosidase activity to control for transfection differences. […]
substance,measurement,value
"leptin: the product of the obese gene, secreted by adipocytes; ligand of OB-R",induction of luciferase activity,no induction
